Test [1] relates to MPCs. Kind of test: qPCR-based analysis of mtDNA damage and mtDNA copy number in MPCs. The following applies: aged MPCs, recombinant α-Klotho in culture for 48 hours, 0.05μg/mL. It counts as cell-based, mice. As for the experimental part:
mtDNA integrity was next examined in MPCs isolated from young or aged mice, using a qPCR-based assay. The method used is based on the principle that a wide variety of types of DNA damage have the propensity to block DNA polymerase progression (see, e.g., Furda et al., 2012 DNA Repair (Amst), 11:684-92). Therefore, this assay detects numerous kinds of base DNA damage or DNA repair intermediates such as abasic sites, as well as single and double DNA strand breaks.
MPCs were treated with 25 nmol of silencing RNA (siRNA) to α-Klotho (GE Dharmacon, Product no.SO2462181G) for 48 hours. As a control, young MPCs were treated with a non-targeting (scramble) siRNA. […]
Oxygen consumption rate (OCR) and extracellular acidification rate (ECAR) were measured in real time using a Seahorse XFe96 Extracellular Flux Analyzer (Billerica, Mass.) as described elsewhere (see, e.g., de Moura and Van Houten, 2014 Methods Mol Biol, 1105:589-602). The basal OCR was measured by averaging the OCR values before treating the cells with oligomycin. Total reserve capacity was calculated by the differences of OCR between treatment with FCCP and 2DG and basal values. Mitochondrial DNA damage was quantified as described elsewhere (see, e.g., Sanders et al., 2014 Toxicol Sci, 142:395-402; and Sanders et al., 2014 Neurobiol Dis, 62:381-6). […]
A general note: Quantitative PCR measures a nucleic acid by following its amplification.

Test [2] concerns MPCs. Description: Seahorse XFe96 analysis of MPC bioenergetics (basal OCR, reserve capacity). As to conditions: aged MPCs, recombinant α-Klotho in culture for 48 hours, 0.05μg/mL. The class given is cell-based, mice. As to the method:
In light of the loss of mitochondrial ultrastructural resulting from decreased α-Klotho expression, we next evaluated whether loss of α-Klotho drives MPC mitochondrial dysfunction. The bioenergetic profiles of young and aged MPCs were studied using a Seahorse XFe96 Flux analyzer, which measures oxygen consumption rate (OCR), a measure of oxidative phosphorylation. OCR was measured again after injection of oligomycin, FCCP, 2-deoxyglucose (2-DG), and rotenone. […] When young MPCs were treated with siRNA to α-Klotho, basal OCR was reduced to ˜25% values of scramble-treated counterparts (FIG. 4C, FIG. 14). MPCs isolated from uninjured Kl+/− mice display a similarly blunted bioenergetic profile (FIG. 4D). […] Reserve capacity represents the spare bioenergetic capacity, is calculated as the difference between the basal and maximal OCR, and indicates the ability of a cell to respond to stress. […]
Oxygen consumption rate (OCR) and extracellular acidification rate (ECAR) were measured in real time using a Seahorse XFe96 Extracellular Flux Analyzer (Billerica, Mass.) as described elsewhere (see, e.g., de Moura and Van Houten, 2014 Methods Mol Biol, 1105:589-602). The basal OCR was measured by averaging the OCR values before treating the cells with oligomycin. Total reserve capacity was calculated by the differences of OCR between treatment with FCCP and 2DG and basal values. […]

The subject of test [3] is OGG1 and APE1. Description: LXRepair multiplex DNA base excision repair enzyme activities in MPCs. It counts as cell-based, mice. As to conditions: siRNA-treated MPCs from young animals, 48 hours of α-Klotho supplementation. As to the method:
LXRepair multiplex technology (see, e.g., Garreau-Balandier et al., 2014 FEBS Lett, 588:1673-9; and Sauvaigo et al., 2004 Anal Biochem, 333:182-92) was used to evaluate the DNA base excision repair (BER) enzyme activities of OGG1 and APE1, which work on two common oxidative DNA lesions, 8-oxodG and abasic sites, respectively.
MPCs were treated with 25 nmol of silencing RNA (siRNA) to α-Klotho (GE Dharmacon, Product no.SO2462181G) for 48 hours. As a control, young MPCs were treated with a non-targeting (scramble) siRNA. Aged MPCs were treated with 0.05μg/mL exogenous α-Klotho (R & D systems, Product no. aa 34-981), added to the culture media for 48 hours.

Test [4] deals with aged mice. Description: Cardiotoxin TA muscle injury in aged mice, α-Klotho supplementation in vivo. As to conditions: for functional recovery (wire hang test, in situ contractile testing) / myofiber area / number of regenerating fibers: daily i.p. 10 μg/kg. As to the method:
Wild-type male C57BL/6 young, Kl+/− mice, or old mice received injuries to bilateral Tibialis Anterior (TA) muscles via an intramuscular injection of cardiotoxin (10 μL of 1 mg/mL). Fourteen days following the injury, TAs were harvested for histological analysis of α-Klotho, fibrosis (picrosirius red), degenerating myofibers (IgG) and myofiber regeneration (laminin). Second Harmonic Generation (SHG) imaging was performed on isolated TA muscles treated with a non-targeting control or lentiviral knockdown of α-Klotho, as well as pump-administered animals in order to visualize collagen and myofibers within the muscle 14 days post injury, as described elsewhere (see, e.g., Zhang et al., 2016 Stem Cells 34:732-742).
Strength endurance was tested using the hang-wire test as described elsewhere (see, e.g., Aartsma-Rus et al., J. Vis. Exp 85:51303 (2014)). The Hang Impulse (HI) score was calculated as bodyweight (grams)×time hung (seconds). Male mice were used for all testing using C57B1/6 mice. Wild type and Kl+/− were females for testing.
Mini osmotic pumps containing either saline or α-Klotho (324 pg/ml in saline vehicle) were inserted subcutaneously into aged mice. After 2 days, bilateral TA muscles were injured by intramuscular CTX injection (as above). Osmotic pumps remained implanted until euthanasia 14 days post injury. Isotonic saline or α-Klotho (10 μg/kg body weight) was administered to aged animals via daily intraperitoneal injections over days 1-3 post-injury or 3-5 days post-injury. The TAs were then harvested 14 days post injury and preserved for histology or SHG analysis. Blood serum was also collected to evaluate circulating α-Klotho levels via ELISA. The activity of α-Klotho was confirmed as described elsewhere (see, e.g., Shalhoub et al., 2011 Calcif Tissue Int, 89:140-50).

B1: α-Klotho: recombinant/exogenous α-Klotho protein (R & D systems, Product no. aa 34-981) (protein)
chain: AEPGQGAQTWARFARAPAPEAAGLLHDTFPDGFLWAVGSAAYQTEGGWRQHGKGASIWDTFTHHSGAAPSDSPIVVAPSGAPSPPLSSTGDVASDSYNNVYRDTEGLRELGVTHYRFSISWARVLPNGTAGTPNREGLRYYRRLLERLRELGVQPVVTLYHWDLPQRLQDTYGGWANRALADHFRDYAELCFRHFGGQVKYWITIDNPYVVAWHGYATGRLAPGVRGSSRLGYLVAHNLLLAHAKVWHLYNTSFRPTQGGRVSIALSSHWINPRRMTDYNIRECQKSLDFVLGWFAKPIFIDGDYPESMKNNLSSLLPDFTESEKRLIRGTADFFALSFGPTLSFQLLDPNMKFRQLESPNLRQLLSWIDLEYNHPPIFIVENGWFVSGTTKRDDAKYMYYLKKFIMETLKAIRLDGVDVIGYTAWSLMDGFEWHRGYSIRRGLFYVDFLSQDKELLPKSSALFYQKLIEDNGFPPLPENQPLEGTFPCDFAWGVVDNYVQVDTTLSQFTDPNVYLWDVHHSKRLIKVDGVVAKKRKPYCVDFSAIRPQITLLREMRVTHFRFSLDWALILPLGNQTQVNHTVLHFYRCMISELVHANITPVVALWQPAAPHQGLPHALAKHGAWENPHTALAFADYANLCFKELGHWVNLWITMNEPNTRNMTYRAGHHLLRAHALAWHLYDDKFRAAQKGKISIALQADWIEPACPFSQNDKEVAERVLEFDIGWLAEPIFGSGDYPRVMRDWLNQKNNFLLPYFTEDEKKLVRGSFDFLAVSHYTTILVDWEKEDPMKYNDYLEVQEMTDITWLNSPSQVAVVPWGLRKVLNWLRFKYGDLPMYVTANGIDDDPHAEQDSLRIYYIKNYVNEALKAYVLDDINLCGYFAYSLSDRSAPKSGFYRYAANQFEPKPSMKHYRKIIDSNGFLGSGTLGRFCPEEYTVCTECGFFQTRKSLLVFISFLVFTFIISLALIFHYSKKGQRSYK
Regarding B1, the mtDNA damage entry in test [1] was “decreased mtDNA damage”. Also, in test [2], the OCR result was “increased OCR” and the reserve capacity entry is on record as “increased reserve capacity”. In test [3], the “activity of BER enzymes (OGG1, APE1; 8-oxodG and abasic sites)” value was “dramatically stimulated the activity of these BER enzymes”. Further, the “activity of BER enzymes (OGG1, APE1; 8-oxodG and abasic sites)” value in test [3] (listed as Klotho) is given as “stimulated repair”. Besides, in test [4] (1-3 dpi), the “functional recovery (wire hang test, in situ contractile testing)” value is reported as “only animals receiving α-Klotho over 3-5 dpi displayed an improved functional recovery”; the myofiber area result is given as “significant increase in myofiber area”; the “number of regenerating fibers” value is reported as “significant increase in the number of regenerating fibers”. Moreover, in test [4] (3-5 dpi), the “functional recovery (wire hang test, in situ contractile testing)” value is “improved functional recovery”; the myofiber area result is listed as “significant increase in myofiber area”; the “number of regenerating fibers” value is listed as “significant increase in the number of regenerating fibers”. Also, the “local α-Klotho within the injured muscle areas” value in test [4] (osmotic pump, 324 pg/ml, 14 dpi) was “significant increase in local α-Klotho”. For the same molecule, in test [4] (osmotic pump, 14 dpi), the “increase in the number of MyoD+ cells at the site of injury” value is on record as “approximately 3.5 fold”; the “number of regenerating fibers after injury (histology and SHG)” value is listed as “increased number of regenerating fibers”. In test [4] (osmotic pump, vs saline), the “myofiber cross sectional area” value is given as “no significant increase” and the total muscle area result is recorded as “no significant increase”.
